Results published in article PMC4834876.

Molecular target: F-actin (filamentous actin) from rabbit muscle (rabbit), P68135
Experiment: co-sedimentation
Conditions: remark: other sources report otherwise

B1: EB1 full-length (end-binding protein 1), wild type, Q15691 1-268 (natural protein)
chain: MAVNVYSTSVTSDNLSRHDMLAWINESLQLNLTKIEQLCSGAAYCQFMDMLFPGSIALKKVKFQAKLEHEYIQNFKILQAGFKRMGVDKIIPVDKLVKGKFQDNFEFVQWFKKFFDANYDGKDYDPVAARQGQETAVAPSLVAPALNKPKKPLTSSSAAPQRPISTQRTAAAPKAGPGVVRKNPGVGNGDDEAAELMQQVNVLKLTVEDLEKERDFYFGKLRNIELICQENEGENDPVLQRIVDILYATDEGFVIPDEGGPQEEQEEY
Binder B1 has a percent co-pelleted (with APC-C1 added) of 50%.
